Data from patent publication US20220402995A1 (TOSOH, published 2022).
Substitutions are numbered along the chain they refer to.

How the values were obtained:
[1] = molecular target: T1, VLP2 (virus-like particles of AAV2) (AAV2, UniProt P03135 1-735; P03135 1-598; P03135 1-533); experiment: ELISA on VLP2; binding after pH 10.0 41.2°C 15 min / untreated
T1 construct: Empty AAV2 capsid; background says about 60 protein molecules, VP1:VP2:VP3 = 1:1:10; Immobilised on the ELISA plate

[2] = molecular target: T1, VLP2 (virus-like particles of AAV2); experiment: ELISA on VLP2; binding after pH 3.0 51.1°C 15 min / untreated;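 note: binding of the heat-treated AAV-binding protein to VLP2, expressed as a percentage of the binding of the same protein without heating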
Procedure: The residual activity was calculated by dividing the binding activity of AAV-binding protein to VLP2 when the heat treatment was performed by the binding activity of AAV-binding protein to VLP2 when the heat treatment was not performed.

T1 sequence (P03135 whole entry, chain 1 of 3): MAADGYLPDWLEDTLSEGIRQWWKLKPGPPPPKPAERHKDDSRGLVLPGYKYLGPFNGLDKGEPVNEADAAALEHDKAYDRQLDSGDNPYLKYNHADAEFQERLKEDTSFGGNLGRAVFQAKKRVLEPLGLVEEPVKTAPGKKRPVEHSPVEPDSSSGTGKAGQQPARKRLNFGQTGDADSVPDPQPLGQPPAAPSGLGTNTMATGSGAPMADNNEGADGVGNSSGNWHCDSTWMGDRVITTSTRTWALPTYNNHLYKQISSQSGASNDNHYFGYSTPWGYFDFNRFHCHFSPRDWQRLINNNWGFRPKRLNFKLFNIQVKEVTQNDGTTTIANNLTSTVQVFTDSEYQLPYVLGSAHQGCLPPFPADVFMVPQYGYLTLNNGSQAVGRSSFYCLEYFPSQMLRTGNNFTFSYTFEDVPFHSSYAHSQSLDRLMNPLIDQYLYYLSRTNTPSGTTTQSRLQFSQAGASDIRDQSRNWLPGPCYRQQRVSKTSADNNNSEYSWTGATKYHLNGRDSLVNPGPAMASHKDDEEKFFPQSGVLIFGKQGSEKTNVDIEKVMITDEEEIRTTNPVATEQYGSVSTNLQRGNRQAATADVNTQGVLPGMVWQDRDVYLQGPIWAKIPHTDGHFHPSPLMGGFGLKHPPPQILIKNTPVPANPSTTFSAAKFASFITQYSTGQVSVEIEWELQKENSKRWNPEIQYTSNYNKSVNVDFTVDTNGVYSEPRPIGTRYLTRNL
T1 sequence (P03135 139-735, tags left off, chain 2 of 3): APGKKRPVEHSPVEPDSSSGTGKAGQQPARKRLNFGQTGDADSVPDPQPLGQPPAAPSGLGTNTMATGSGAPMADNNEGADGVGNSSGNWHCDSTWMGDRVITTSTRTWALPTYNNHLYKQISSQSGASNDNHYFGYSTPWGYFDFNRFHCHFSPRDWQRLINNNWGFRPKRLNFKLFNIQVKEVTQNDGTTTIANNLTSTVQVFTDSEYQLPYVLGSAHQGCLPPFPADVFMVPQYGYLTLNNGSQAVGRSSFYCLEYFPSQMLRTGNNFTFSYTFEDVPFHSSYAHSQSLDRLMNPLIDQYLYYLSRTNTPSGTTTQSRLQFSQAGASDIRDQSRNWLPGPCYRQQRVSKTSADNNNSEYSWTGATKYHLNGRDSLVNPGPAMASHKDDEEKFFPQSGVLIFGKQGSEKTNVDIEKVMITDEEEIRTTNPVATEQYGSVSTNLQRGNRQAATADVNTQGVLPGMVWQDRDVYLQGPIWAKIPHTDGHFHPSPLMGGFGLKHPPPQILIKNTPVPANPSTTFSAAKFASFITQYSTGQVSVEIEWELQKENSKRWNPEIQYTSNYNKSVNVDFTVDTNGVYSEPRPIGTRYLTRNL
T1 sequence (P03135 203-735, chain 3 of 3): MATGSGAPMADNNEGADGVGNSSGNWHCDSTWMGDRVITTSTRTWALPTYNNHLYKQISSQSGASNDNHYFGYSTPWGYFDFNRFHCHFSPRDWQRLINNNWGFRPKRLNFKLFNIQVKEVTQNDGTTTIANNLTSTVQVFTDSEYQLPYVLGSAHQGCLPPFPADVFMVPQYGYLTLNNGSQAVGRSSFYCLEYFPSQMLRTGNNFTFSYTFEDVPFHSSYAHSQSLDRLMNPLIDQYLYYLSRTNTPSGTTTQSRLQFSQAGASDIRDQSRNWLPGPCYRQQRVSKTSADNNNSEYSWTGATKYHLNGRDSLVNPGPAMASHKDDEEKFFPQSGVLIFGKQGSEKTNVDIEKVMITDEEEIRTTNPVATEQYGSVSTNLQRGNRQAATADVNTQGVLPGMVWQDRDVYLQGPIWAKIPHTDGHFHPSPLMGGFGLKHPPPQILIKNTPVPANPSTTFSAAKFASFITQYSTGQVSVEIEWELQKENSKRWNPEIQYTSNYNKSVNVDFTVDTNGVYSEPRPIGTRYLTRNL

B1: AAV-binding protein No. 144 (AVR8g + Val383Ala, Gln415Arg) (receptor)
chain: MGSAGESDQITLPKNEVQLNAYVLQEPPKGETCTYDWQLITHPRDYSGEMEGEHSQILKLSNLTPGLYEFKVIAEGQNAHSEGYVNVTVEPEPRKNRPPIAIVSPRFQEISLPTTSTVIDGSQSTDDDKIVQYHWEELKGPLREEKISEDTAILKLSKLVPGNYTFRLTVVDSDGATDSTTANLTVNKAVDHHHHHH
Residual activity [%] [1]: 65.7%

B2: AAV-binding protein No. 61 (AVR2 + Leu328Gln) (receptor)
chain: B1 chain with D8V, L19Q, E53K, N62K, A74V, E90K, R106Q, R167S, D178N
Residual activity [%] [2]: 43.5%

B3: AAV-binding protein No. 74 (AVR2 + Ser476Gly) (receptor)
chain: B1 chain with D8V, E53K, N62K, A74V, E90K, R106Q, R167G, D178N
Residual activity [%] [2]: 63.4%

B4: AAV-binding protein No. 131 (AVR8g + Asn324Ser, Gly357Cys) (receptor)
chain: B1 chain with N15S, G48C, A74V, R106Q
Residual activity [%] [1]: 70.3%

B5: AAV-binding protein No. 139 (AVR8g + Leu369Gln, Pro374Leu) (receptor)
chain: B1 chain with L60Q, P65L, A74V, R106Q
Residual activity [%] [1]: 85.2%

B6: AAV-binding protein No. 117 (AVR8g + Leu376Pro) (receptor)
chain: B1 chain with L67P, A74V, R106Q
Residual activity [%] [1]: 76.7%

B7: AAV-binding protein No. 136 (AVR8g + Glu335Val, Thr343Ser) (receptor)
chain: B1 chain with E26V, T34S, A74V, R106Q
Residual activity [%] [1]: 38.8%

B8: AAV-binding protein No. 145 (AVR8g + Trp346Cys, Arg353Cys, His389Arg) (receptor)
chain: B1 chain with W37C, R44C, A74V, H80R, R106Q
Residual activity [%] [1]: 63.5%

B9: AAV-binding protein No. 68 (AVR2 + Tyr(Cys)342Arg) (receptor)
chain: B1 chain with D8V, C33R, E53K, N62K, A74V, E90K, R106Q, R167S, D178N
notes: Cys342 of AVR2 replaced by Arg
Residual activity [%] [2]: 70.4%

B10: AAV-binding protein No. 60 (AVR2 + Lys323Glu) (receptor)
chain: B1 chain with D8V, K14E, E53K, N62K, A74V, E90K, R106Q, R167S, D178N
Residual activity [%] [2]: 80.2%

B11: AAV-binding protein No. 65 (AVR2 + Val332Glu) (receptor)
chain: B1 chain with D8V, V23E, E53K, N62K, A74V, E90K, R106Q, R167S, D178N
Residual activity [%] [2]: 29.4%

B12: AAV-binding protein No. 124 (AVR8g + Gln441Arg) (receptor)
chain: B1 chain with A74V, R106Q, Q132R
Residual activity [%] [1]: 25.2%

B13: AAV-binding protein No. 135 (AVR8g + Glu335Gly, Gln386Arg) (receptor)
chain: B1 chain with E26G, A74V, Q77R, R106Q
Residual activity [%] [1]: 36.3%

B14: AAV-binding protein No. 125 (AVR8g + His443Leu) (receptor)
chain: B1 chain with A74V, R106Q, H134L
Residual activity [%] [1]: 36.5%

B15: AAV-binding protein No. 150 (AVR8g + Val396Ala, Gln441Arg, Lys448Glu) (receptor)
chain: B1 chain with A74V, V87A, R106Q, Q132R, K139E
Residual activity [%] [1]: 49.7%

B16: AAV-binding protein No. 71 (AVR2 + His389Asp) (receptor)
chain: B1 chain with D8V, E53K, N62K, A74V, H80D, E90K, R106Q, R167S, D178N
Residual activity [%] [2]: 71.9%

B17: AAV-binding protein No. 122 (AVR8g + Gln386Arg) (receptor)
chain: B1 chain with A74V, Q77R, R106Q
Residual activity [%] [1]: 34.9%

B18: AAV-binding protein No. 138 (AVR8g + Gly361Cys, Gly(Ser)390Gly) (receptor)
chain: B1 chain with G52C, A74V, S81G, R106Q
notes: Gly(Ser)390Gly read as Ser390 of AVR8g back to the wild-type Gly, so Gly390Ser is not applied
Residual activity [%] [1]: 51.5%

B19: AAV-binding protein No. 133 (AVR8g + Gln327Leu, Lys(Asn)371Asp) (receptor)
chain: B1 chain with Q18L, N62D, A74V, R106Q
notes: Asn371 of AVR8g replaced by Asp
Residual activity [%] [1]: 62.1%

B20: AAV-binding protein No. 118 (AVR8g + Glu378Gly) (receptor)
chain: B1 chain with E69G, A74V, R106Q
Residual activity [%] [1]: 66.7%

B21: AAV-binding protein No. 147 (AVR8g + Phe379Cys, Gln432Leu, Ser488Leu) (receptor)
chain: B1 chain with F70C, A74V, R106Q, Q123L, S179L
Residual activity [%] [1]: 79.7%

B22: AAV-binding protein No. 72 (AVR2 + Val394Ala) (receptor)
chain: B1 chain with D8V, E53K, N62K, A74V, V85A, E90K, R106Q, R167S, D178N
Residual activity [%] [2]: 32%

B23: AAV-binding protein No. 113 (AVR8g + Ile366Thr) (receptor)
chain: B1 chain with I57T, A74V, R106Q
Residual activity [%] [1]: 41.4%

B24: AAV-binding protein No. 119 (AVR8g + Phe379Ser) (receptor)
chain: B1 chain with F70S, A74V, R106Q
Residual activity [%] [1]: 24.3%

B25: AAV-binding protein No. 63 (AVR2 + Tyr331His) (receptor)
chain: B1 chain with D8V, Y22H, E53K, N62K, A74V, E90K, R106Q, R167S, D178N
Residual activity [%] [2]: 43.1%

B26: AAV-binding protein No. 127 (AVR8g + Asp483Asn) (receptor)
chain: B1 chain with A74V, R106Q, D174N
Residual activity [%] [1]: 23.3%

B27: AAV-binding protein No. 129 (AVR8g + Ala313Ser, Glu378Gly) (receptor)
chain: B1 chain with A4S, E69G, A74V, R106Q
Residual activity [%] [1]: 67.5%

B28: AAV-binding protein No. 123 (AVR8g + Tyr393Cys) (receptor)
chain: B1 chain with A74V, Y84C, R106Q
Residual activity [%] [1]: 60.5%

B29: AAV-binding protein No. 76 (AVR2 + Asn492Asp) (receptor)
chain: B1 chain with D8V, E53K, N62K, A74V, E90K, R106Q, R167S, D178N, N183D
Residual activity [%] [2]: 36.4%
